Here are results for four substances from patent US20200308290A1.

The target in experiment [1] is FcγRIIB on transfected CHO cells (UniProt P31994). Nature of the experiment: flow cytometry on FcγRIIB-transfected CHO cells, detection with anti-human kappa antibody, GFI against nM. In general terms: Flow cytometry measures light scatter and fluorescence of single cells or particles in a stream.
Experiment [2] concerns the target FcγRIIIA on transfected CHO cells (UniProt P08637). Nature of the experiment: flow cytometry on FcγRIIIA-transfected CHO cells, detection with anti-human kappa antibody, GFI against nM.

Sequence of FcγRIIB on transfected CHO cells (P31994 43-310 limits assumed): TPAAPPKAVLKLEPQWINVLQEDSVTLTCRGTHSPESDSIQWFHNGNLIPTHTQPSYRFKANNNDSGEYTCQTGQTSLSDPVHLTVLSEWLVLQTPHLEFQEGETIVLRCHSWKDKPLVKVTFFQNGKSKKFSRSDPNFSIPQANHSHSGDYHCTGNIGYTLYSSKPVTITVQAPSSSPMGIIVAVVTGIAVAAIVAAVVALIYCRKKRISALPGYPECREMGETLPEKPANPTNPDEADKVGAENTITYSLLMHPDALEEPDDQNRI
Sequence of FcγRIIIA on transfected CHO cells (P08637 17-254 limits assumed): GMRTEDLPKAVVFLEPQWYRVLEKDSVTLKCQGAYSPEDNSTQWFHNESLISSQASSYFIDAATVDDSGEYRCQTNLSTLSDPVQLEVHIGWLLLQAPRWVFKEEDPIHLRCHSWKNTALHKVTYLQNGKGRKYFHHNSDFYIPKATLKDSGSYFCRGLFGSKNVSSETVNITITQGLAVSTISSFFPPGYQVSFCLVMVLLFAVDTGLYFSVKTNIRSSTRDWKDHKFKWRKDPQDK

The term EC50 (read off the curve) denotes the concentration that produces a half-maximal response. In experiment [1], L328F (antibody) had an EC50 (read off the curve) of 2 nM.

For the substance N297A (antibody), the EC50 (read off the curve) in experiment [2] is 4 nM.

Consider S267E (antibody), for which the values for the 50% effective concentration (EC50 (read off the curve)) in experiment [2] and in experiment [1] were 1 nM and 0.7 nM, respectively.

In experiment [1], SELF (antibody) displayed a half-maximal effective concentration (EC50 (read off the curve)) of 0.3 nM.
